In the Human Domainome abundance scans (Beltran et al. 2025):
± gives the uncertainty stated by the source.

B1: LIM and senescent cell antigen-like-containing domain protein 2, residues 13 to 71; numbered along this chain, Q7Z4I7 (parent)
chain: AVCQRCQARFSPAERIVNSNGELYHEHCFVCAQCFRPFPEGLFYEFEGRKYCEHDFQML

Variants of: B1
Assay: abundance fitness (aPCA) (normalised: wild type 0, dead -1); higher = more abundant; growth selection in yeast, the domain comes from the species named
Details: Homo sapiens

AVCQRCQARFSPAERIVNSNGELYHEHCFVGAQCFRPFPEGLFYEFEGRKYCEHDFQML [C31G] and AVCQRCQARFSPAERIVNSNGELYHEHCFVFAQCFRPFPEGLFYEFEGRKYCEHDFQML [C31F] are within error of each other in abundance fitness: -0.774 ± 0.085 for the first, -0.954 ± 0.1 for the second.

AVCQRCQARFSPAERIVNSNGELYHEHCFVDAQCFRPFPEGLFYEFEGRKYCEHDFQML [C31D] and AVCQRCQARFSPAERIVNSNGELYHEHCFVLAQCFRPFPEGLFYEFEGRKYCEHDFQML [C31L] are within error of each other in abundance fitness: -0.574 ± 0.11 for the first, -0.709 ± 0.058 for the second.

Compared with AVCQRCQARFSPAERIVNSNGELYHEHCFVHAQCFRPFPEGLFYEFEGRKYCEHDFQML [C31H], AVCQRCQARFSPAERIVNSNGELYHEHCFVIAQCFRPFPEGLFYEFEGRKYCEHDFQML [C31I] is lower in abundance fitness: -0.481 ± 0.13 for the first, -0.76 ± 0.11 for the second.

Going from AVCQRCQARFSPAERIVNSNGELYHEHCFVKAQCFRPFPEGLFYEFEGRKYCEHDFQML [C31K] to AVCQRCQARFSPAERIVNSNGELYHEHCFVEAQCFRPFPEGLFYEFEGRKYCEHDFQML [C31E], the abundance fitness rises from -1.1 ± 0.15 to -0.612 ± 0.11.

First: AVCQRCQARFSPAERIVNSNGELYHEHCQVCAQCFRPFPEGLFYEFEGRKYCEHDFQML [F29Q]
Second: AVCQRCQARFSPAERIVNSNGELYHEHCTVCAQCFRPFPEGLFYEFEGRKYCEHDFQML [F29T]
The abundance fitness of the first is lower: -0.184 ± 0.069 for the first, -0.011 ± 0.077 for the second.

AVCQRCQARFSPAERIVNSNGELYHEHCYVCAQCFRPFPEGLFYEFEGRKYCEHDFQML [F29Y] and AVCQRCQARFSPAERIVNSNGELYHEHCRVCAQCFRPFPEGLFYEFEGRKYCEHDFQML [F29R] are within error of each other in abundance fitness: -0.2 ± 0.11 for the first, -0.141 ± 0.058 for the second.

AVCQRCQARFSPAERIVNSNGELYHEHCMVCAQCFRPFPEGLFYEFEGRKYCEHDFQML [F29M] and AVCQRCQARFSPAERIVNSNGELYHEHCHVCAQCFRPFPEGLFYEFEGRKYCEHDFQML [F29H] are within error of each other in abundance fitness: 0.1 ± 0.077 for the first, 0.042 ± 0.11 for the second.

AVCQRCQARFSPAERIVNSNGELYHEHCAVCAQCFRPFPEGLFYEFEGRKYCEHDFQML [F29A] and AVCQRCQARFSPAERIVNSNGELYHEHCGVCAQCFRPFPEGLFYEFEGRKYCEHDFQML [F29G] are within error of each other in abundance fitness: 0.207 ± 0.16 for the first, -0.019 ± 0.1 for the second.

AVCQRCQARFSPAERIVNSNGELYHEHCNVCAQCFRPFPEGLFYEFEGRKYCEHDFQML [F29N] and AVCQRCQARFSPAERIVNSNGELYHEHCEVCAQCFRPFPEGLFYEFEGRKYCEHDFQML [F29E] are within error of each other in abundance fitness: -0.175 ± 0.12 for the first, -0.326 ± 0.12 for the second.

First: AVCQRCQARFSPAERIVNSNGELYHEHCKVCAQCFRPFPEGLFYEFEGRKYCEHDFQML [F29K]
Second: AVCQRCQARFSPAERIVNSNGELYHEHCSVCAQCFRPFPEGLFYEFEGRKYCEHDFQML [F29S]
The abundance fitness of the first is lower: -0.407 ± 0.089 for the first, -0.155 ± 0.06 for the second.

AVCQRCQARFSPAERIVNSNGELYHEHCVVCAQCFRPFPEGLFYEFEGRKYCEHDFQML [F29V] and AVCQRCQARFSPAERIVNSNGELYHEHCPVCAQCFRPFPEGLFYEFEGRKYCEHDFQML [F29P] are within error of each other in abundance fitness: -0.083 ± 0.085 for the first, 0.029 ± 0.074 for the second.

AVCQRCQARFSPAERIVNSNGELYHEHCWVCAQCFRPFPEGLFYEFEGRKYCEHDFQML [F29W] and AVCQRCQARFSPAERIVNSNGELYHEHCIVCAQCFRPFPEGLFYEFEGRKYCEHDFQML [F29I] are within error of each other in abundance fitness: 0.008 ± 0.079 for the first, 0.015 ± 0.097 for the second.

AVCQRCQARFSPAERIVNSNGELYHEHCLVCAQCFRPFPEGLFYEFEGRKYCEHDFQML [F29L] and AVCQRCQARFSPAERIVNSNGELYHEHCCVCAQCFRPFPEGLFYEFEGRKYCEHDFQML [F29C] are within error of each other in abundance fitness: -0.011 ± 0.051 for the first, -0.012 ± 0.097 for the second.

AVCQRCQARFSPAERIVNSNGELYHEHCFRCAQCFRPFPEGLFYEFEGRKYCEHDFQML [V30R] and AVCQRCQARFSPAERIVNSNGELYHEHCFNCAQCFRPFPEGLFYEFEGRKYCEHDFQML [V30N] are within error of each other in abundance fitness: -0.093 ± 0.059 for the first, -0.257 ± 0.14 for the second.

First: AVCQRCQARFSPAERIVNSNGELYHEHCFGCAQCFRPFPEGLFYEFEGRKYCEHDFQML [V30G]
Second: AVCQRCQARFSPAERIVNSNGELYHEHCFTCAQCFRPFPEGLFYEFEGRKYCEHDFQML [V30T]
The abundance fitness of the first is lower: -0.233 ± 0.076 for the first, -0.065 ± 0.084 for the second.

AVCQRCQARFSPAERIVNSNGELYHEHCFECAQCFRPFPEGLFYEFEGRKYCEHDFQML [V30E] and AVCQRCQARFSPAERIVNSNGELYHEHCFYCAQCFRPFPEGLFYEFEGRKYCEHDFQML [V30Y] are within error of each other in abundance fitness: -0.294 ± 0.16 for the first, -0.343 ± 0.11 for the second.

Compared with AVCQRCQARFSPAERIVNSNGELYHEHCFMCAQCFRPFPEGLFYEFEGRKYCEHDFQML [V30M], AVCQRCQARFSPAERIVNSNGELYHEHCFSCAQCFRPFPEGLFYEFEGRKYCEHDFQML [V30S] is higher in abundance fitness: -0.311 ± 0.1 for the first, -0.114 ± 0.063 for the second.

AVCQRCQARFSPAERIVNSNGELYHEHCFFCAQCFRPFPEGLFYEFEGRKYCEHDFQML [V30F] and AVCQRCQARFSPAERIVNSNGELYHEHCFHCAQCFRPFPEGLFYEFEGRKYCEHDFQML [V30H] are within error of each other in abundance fitness: -0.097 ± 0.092 for the first, -0.143 ± 0.18 for the second.

AVCQRCQARFSPAERIVNSNGELYHEHCFWCAQCFRPFPEGLFYEFEGRKYCEHDFQML [V30W] and AVCQRCQARFSPAERIVNSNGELYHEHCFDCAQCFRPFPEGLFYEFEGRKYCEHDFQML [V30D] are within error of each other in abundance fitness: -0.411 ± 0.13 for the first, -0.798 ± 0.27 for the second.

AVCQRCQARFSPAERIVNSNGELYHEHCFQCAQCFRPFPEGLFYEFEGRKYCEHDFQML [V30Q] and AVCQRCQARFSPAERIVNSNGELYHEHCFCCAQCFRPFPEGLFYEFEGRKYCEHDFQML [V30C] are within error of each other in abundance fitness: -0.265 ± 0.13 for the first, -0.11 ± 0.08 for the second.

First: AVCQRCQARFSPAERIVNSNGELYHEHCFLCAQCFRPFPEGLFYEFEGRKYCEHDFQML [V30L]
Second: AVCQRCQARFSPAERIVNSNGELYHEHCFICAQCFRPFPEGLFYEFEGRKYCEHDFQML [V30I]
The abundance fitness of the first is higher: -0.021 ± 0.062 for the first, -0.252 ± 0.12 for the second.

AVCQRCQARFSPAERIVNSNGELYHEHCFKCAQCFRPFPEGLFYEFEGRKYCEHDFQML [V30K] and AVCQRCQARFSPAERIVNSNGELYHHHCFVCAQCFRPFPEGLFYEFEGRKYCEHDFQML [E26H] are within error of each other in abundance fitness: -0.224 ± 0.11 for the first, -0.082 ± 0.2 for the second.

AVCQRCQARFSPAERIVNSNGELYHMHCFVCAQCFRPFPEGLFYEFEGRKYCEHDFQML [E26M] gave an abundance fitness of -0.253 ± 0.095.
